Data from patent US20140087995A1 (published 2014).
Like-named read-outs stand apart in the source and are kept apart here. Numbered stars: 1 amine (or outer) side, 2 acyl side, 3 side chain; on linkers, the order of the positions; unused ones are H or OH. Bridge positions count the residues as written; N and C are the ends. Side chains are listed from the residue outwards. Ends that are not written are not given here. * marks the point of attachment. C20 diacid = O=C(O)CCCCCCCCCCCCCCCCCCC(=O)*; γGlu = O=C(O)[C@H](CCC(=O)[*:2])N[*:1]

T1: human calcitonin receptor (human, UniProt P30988 25-474)
T1 sequence (looked up): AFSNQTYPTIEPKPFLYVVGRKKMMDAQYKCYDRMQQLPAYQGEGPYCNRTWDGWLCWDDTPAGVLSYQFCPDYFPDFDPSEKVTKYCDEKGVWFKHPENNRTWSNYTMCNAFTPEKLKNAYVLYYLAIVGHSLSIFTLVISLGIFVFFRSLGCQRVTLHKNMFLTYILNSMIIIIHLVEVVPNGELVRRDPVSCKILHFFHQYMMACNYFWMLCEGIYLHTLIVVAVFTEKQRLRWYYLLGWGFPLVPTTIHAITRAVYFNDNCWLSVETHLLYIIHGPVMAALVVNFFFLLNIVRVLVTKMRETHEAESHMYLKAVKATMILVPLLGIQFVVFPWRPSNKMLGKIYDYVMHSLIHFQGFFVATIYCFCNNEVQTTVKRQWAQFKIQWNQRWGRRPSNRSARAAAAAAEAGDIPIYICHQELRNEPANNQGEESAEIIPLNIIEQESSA

T2: human amylin 3(a) receptor (human calcitonin receptor co-expressed with RAMP-3) (human, UniProt P30988 25-474; O60896 24-148, limits assumed)
T2 sequence (looked up) 1: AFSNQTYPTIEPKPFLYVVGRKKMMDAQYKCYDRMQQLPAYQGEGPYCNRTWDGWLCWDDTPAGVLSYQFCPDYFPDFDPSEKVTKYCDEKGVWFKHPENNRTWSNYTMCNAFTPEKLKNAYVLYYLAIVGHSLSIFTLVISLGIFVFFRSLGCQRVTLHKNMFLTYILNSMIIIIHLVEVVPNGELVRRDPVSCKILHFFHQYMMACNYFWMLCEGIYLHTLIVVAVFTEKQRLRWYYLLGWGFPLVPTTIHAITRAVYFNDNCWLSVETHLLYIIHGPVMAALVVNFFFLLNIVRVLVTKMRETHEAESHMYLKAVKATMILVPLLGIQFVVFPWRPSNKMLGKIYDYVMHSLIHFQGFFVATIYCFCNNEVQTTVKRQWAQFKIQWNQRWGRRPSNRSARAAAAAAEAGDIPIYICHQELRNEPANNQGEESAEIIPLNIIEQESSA
T2 sequence (looked up) 2: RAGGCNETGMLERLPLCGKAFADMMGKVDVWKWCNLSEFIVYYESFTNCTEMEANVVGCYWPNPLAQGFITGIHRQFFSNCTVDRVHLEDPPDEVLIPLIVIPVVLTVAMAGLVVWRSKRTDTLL

T3: human calcitonin receptor (human, UniProt P30988 25-474)
T3 sequence (looked up): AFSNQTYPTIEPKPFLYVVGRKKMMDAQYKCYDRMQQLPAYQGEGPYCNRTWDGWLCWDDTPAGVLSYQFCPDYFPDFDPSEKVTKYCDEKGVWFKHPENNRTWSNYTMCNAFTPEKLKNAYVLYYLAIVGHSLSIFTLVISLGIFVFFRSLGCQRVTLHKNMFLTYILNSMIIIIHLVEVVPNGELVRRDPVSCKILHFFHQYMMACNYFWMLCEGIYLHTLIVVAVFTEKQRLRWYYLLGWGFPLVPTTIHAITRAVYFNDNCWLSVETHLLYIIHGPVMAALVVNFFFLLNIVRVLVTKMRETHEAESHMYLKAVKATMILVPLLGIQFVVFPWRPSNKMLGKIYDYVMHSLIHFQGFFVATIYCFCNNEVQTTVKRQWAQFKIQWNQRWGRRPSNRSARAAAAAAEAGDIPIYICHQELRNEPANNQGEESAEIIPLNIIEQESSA


What was measured:
Assay in all cases: cell-based or functional assay
[1] = target: T1, human calcitonin receptor
[2] = target: T2, human amylin 3(a) receptor (human …)
[3] = target: T3, human calcitonin receptor; remark: listed apart in the source

| Binder | Ratio hCT/hAmylin funct. [1] | hCTR funct. EC50 [1] [nM] | hAmylin-R funct. EC50 [2] [nM] | hCTR funct. EC50 [3] [nM] |
| --- | --- | --- | --- | --- |
| {C20 diacid-γGlu}-GRCNTATCATQRLAHFLRHSSPNFGAIPSSTNVGHNTY-NH2 (disulfide 3-8; SMILES CC[C@H](C)[C@H](NC(=O)[C@H](C)NC(=O)CNC(=O)[C@H](Cc1ccccc1)NC(=O)[C@H](CC(N)=O)NC(=O)[C@@H]1CCCN1C(=O)[C@H](CO)NC(=O)[C@H](CO)NC(=O)[C@H](Cc1c[nH]cn1)NC(=O)[C@H](CCCNC(=N)N)NC(=O)[C@H](CC(C)C)NC(=O)[C@H](Cc1ccccc1)NC(=O)[C@H](Cc1c[nH]cn1)NC(=O)[C@H](C)NC(=O)[C@H](CC(C)C)NC(=O)[C@H](CCCNC(=N)N)NC(=O)[C@H](CCC(N)=O)NC(=O)[C@@H](NC(=O)[C@H](C)NC(=O)[C@@H]1CSSC[C@H](NC(=O)[C@H](CCCNC(=N)N)NC(=O)CNC(=O)CC[C@H](NC(=O)CCCCCCCCCCCCCCCCCCC(=O)O)C(=O)O)C(=O)N[C@@H](CC(N)=O)C(=O)N[C@@H]([C@@H](C)O)C(=O)N[C@@H](C)C(=O)N[C@@H]([C@@H](C)O)C(=O)N1)[C@@H](C)O)C(=O)N1CCC[C@H]1C(=O)N[C@@H](CO)C(=O)N[C@@H](CO)C(=O)N[C@H](C(=O)N[C@@H](CC(N)=O)C(=O)N[C@H](C(=O)NCC(=O)N[C@@H](Cc1c[nH]cn1)C(=O)N[C@@H](CC(N)=O)C(=O)N[C@H](C(=O)N[C@@H](Cc1ccc(O)cc1)C(N)=O)[C@@H](C)O)C(C)C)[C@@H](C)O, also called compound 100) | 6.8 | 1.73 | 0.253 |  |
| {C20 diacid-γGlu}-GRCNTATCATQRLAAFLRHSSPNFGAIPSSTNVGPNTY-NH2 (disulfide 3-8) | 2.1 | 0.148 | 0.07 |  |
| {C20 diacid-γGlu}-GRCNTATCATQRLAHFLRHSSPNFGAIPSSTNVGPNTY-NH2 (disulfide 3-8; SMILES CC[C@H](C)[C@H](NC(=O)[C@H](C)NC(=O)CNC(=O)[C@H](Cc1ccccc1)NC(=O)[C@H](CC(N)=O)NC(=O)[C@@H]1CCCN1C(=O)[C@H](CO)NC(=O)[C@H](CO)NC(=O)[C@H](Cc1c[nH]cn1)NC(=O)[C@H](CCCNC(=N)N)NC(=O)[C@H](CC(C)C)NC(=O)[C@H](Cc1ccccc1)NC(=O)[C@H](Cc1c[nH]cn1)NC(=O)[C@H](C)NC(=O)[C@H](CC(C)C)NC(=O)[C@H](CCCNC(=N)N)NC(=O)[C@H](CCC(N)=O)NC(=O)[C@@H](NC(=O)[C@H](C)NC(=O)[C@@H]1CSSC[C@H](NC(=O)[C@H](CCCNC(=N)N)NC(=O)CNC(=O)CC[C@H](NC(=O)CCCCCCCCCCCCCCCCCCC(=O)O)C(=O)O)C(=O)N[C@@H](CC(N)=O)C(=O)N[C@@H]([C@@H](C)O)C(=O)N[C@@H](C)C(=O)N[C@@H]([C@@H](C)O)C(=O)N1)[C@@H](C)O)C(=O)N1CCC[C@H]1C(=O)N[C@@H](CO)C(=O)N[C@@H](CO)C(=O)N[C@H](C(=O)N[C@@H](CC(N)=O)C(=O)N[C@H](C(=O)NCC(=O)N1CCC[C@H]1C(=O)N[C@@H](CC(N)=O)C(=O)N[C@H](C(=O)N[C@@H](Cc1ccc(O)cc1)C(N)=O)[C@@H](C)O)C(C)C)[C@@H](C)O) | 2.9 | 0.179 | 0.062 |  |
| {C20 diacid-γGlu}-GRCNTATCATQRLAAFLRHSSPNFGAIPSSTNVGHNTY-NH2 (disulfide 3-8; SMILES CC[C@H](C)[C@H](NC(=O)[C@H](C)NC(=O)CNC(=O)[C@H](Cc1ccccc1)NC(=O)[C@H](CC(N)=O)NC(=O)[C@@H]1CCCN1C(=O)[C@H](CO)NC(=O)[C@H](CO)NC(=O)[C@H](Cc1c[nH]cn1)NC(=O)[C@H](CCCNC(=N)N)NC(=O)[C@H](CC(C)C)NC(=O)[C@H](Cc1ccccc1)NC(=O)[C@H](C)NC(=O)[C@H](C)NC(=O)[C@H](CC(C)C)NC(=O)[C@H](CCCNC(=N)N)NC(=O)[C@H](CCC(N)=O)NC(=O)[C@@H](NC(=O)[C@H](C)NC(=O)[C@@H]1CSSC[C@H](NC(=O)[C@H](CCCNC(=N)N)NC(=O)CNC(=O)CC[C@H](NC(=O)CCCCCCCCCCCCCCCCCCC(=O)O)C(=O)O)C(=O)N[C@@H](CC(N)=O)C(=O)N[C@@H]([C@@H](C)O)C(=O)N[C@@H](C)C(=O)N[C@@H]([C@@H](C)O)C(=O)N1)[C@@H](C)O)C(=O)N1CCC[C@H]1C(=O)N[C@@H](CO)C(=O)N[C@@H](CO)C(=O)N[C@H](C(=O)N[C@@H](CC(N)=O)C(=O)N[C@H](C(=O)NCC(=O)N[C@@H](Cc1c[nH]cn1)C(=O)N[C@@H](CC(N)=O)C(=O)N[C@H](C(=O)N[C@@H](Cc1ccc(O)cc1)C(N)=O)[C@@H](C)O)C(C)C)[C@@H](C)O) | 4.9 | 0.537 | 0.109 |  |
| {C20 diacid-γGlu}-GRCNTATCATQRLAHFLRHSSPNFGAIPSSTNVGSNTY-NH2 (disulfide 3-8; SMILES CC[C@H](C)[C@H](NC(=O)[C@H](C)NC(=O)CNC(=O)[C@H](Cc1ccccc1)NC(=O)[C@H](CC(N)=O)NC(=O)[C@@H]1CCCN1C(=O)[C@H](CO)NC(=O)[C@H](CO)NC(=O)[C@H](Cc1c[nH]cn1)NC(=O)[C@H](CCCNC(=N)N)NC(=O)[C@H](CC(C)C)NC(=O)[C@H](Cc1ccccc1)NC(=O)[C@H](Cc1c[nH]cn1)NC(=O)[C@H](C)NC(=O)[C@H](CC(C)C)NC(=O)[C@H](CCCNC(=N)N)NC(=O)[C@H](CCC(N)=O)NC(=O)[C@@H](NC(=O)[C@H](C)NC(=O)[C@@H]1CSSC[C@H](NC(=O)[C@H](CCCNC(=N)N)NC(=O)CNC(=O)CC[C@H](NC(=O)CCCCCCCCCCCCCCCCCCC(=O)O)C(=O)O)C(=O)N[C@@H](CC(N)=O)C(=O)N[C@@H]([C@@H](C)O)C(=O)N[C@@H](C)C(=O)N[C@@H]([C@@H](C)O)C(=O)N1)[C@@H](C)O)C(=O)N1CCC[C@H]1C(=O)N[C@@H](CO)C(=O)N[C@@H](CO)C(=O)N[C@H](C(=O)N[C@@H](CC(N)=O)C(=O)N[C@H](C(=O)NCC(=O)N[C@@H](CO)C(=O)N[C@@H](CC(N)=O)C(=O)N[C@H](C(=O)N[C@@H](Cc1ccc(O)cc1)C(N)=O)[C@@H](C)O)C(C)C)[C@@H](C)O, also called compound 99) | 10 | 0.818 | 0.082 |  |
| K([γGlu-γGlu-C20 diacid])CNTATCATQRLAHFLRHSSPNFGAIPSSTNVGSNTY-NH2 (disulfide 2-7; N-terminus assumed; SMILES CC[C@H](C)[C@H](NC(=O)[C@H](C)NC(=O)CNC(=O)[C@H](Cc1ccccc1)NC(=O)[C@H](CC(N)=O)NC(=O)[C@@H]1CCCN1C(=O)[C@H](CO)NC(=O)[C@H](CO)NC(=O)[C@H](Cc1c[nH]cn1)NC(=O)[C@H](CCCNC(=N)N)NC(=O)[C@H](CC(C)C)NC(=O)[C@H](Cc1ccccc1)NC(=O)[C@H](Cc1c[nH]cn1)NC(=O)[C@H](C)NC(=O)[C@H](CC(C)C)NC(=O)[C@H](CCCNC(=N)N)NC(=O)[C@H](CCC(N)=O)NC(=O)[C@@H](NC(=O)[C@H](C)NC(=O)[C@@H]1CSSC[C@H](NC(=O)[C@@H](N)CCCCNC(=O)CC[C@H](NC(=O)CC[C@H](NC(=O)CCCCCCCCCCCCCCCCCCC(=O)O)C(=O)O)C(=O)O)C(=O)N[C@@H](CC(N)=O)C(=O)N[C@@H]([C@@H](C)O)C(=O)N[C@@H](C)C(=O)N[C@@H]([C@@H](C)O)C(=O)N1)[C@@H](C)O)C(=O)N1CCC[C@H]1C(=O)N[C@@H](CO)C(=O)N[C@@H](CO)C(=O)N[C@H](C(=O)N[C@@H](CC(N)=O)C(=O)N[C@H](C(=O)NCC(=O)N[C@@H](CO)C(=O)N[C@@H](CC(N)=O)C(=O)N[C@H](C(=O)N[C@@H](Cc1ccc(O)cc1)C(N)=O)[C@@H](C)O)C(C)C)[C@@H](C)O, also called compound 92) | 28 | 2.38 | 0.085 |  |
| KCNTATCATQRLANFLRHSSPNFGAIPSSTNVGSNTY (N-terminal alpha-amino acylated with C20 diacid-gGlu-2xOEG; Cys2-Cys7 disulfide; C-terminal amide, analogue of human amylin; also called compound 24) |  |  |  | 10 |
| KCNTATCATQRLANFLRHSSPNFGAIPSSTNVGRNTY (N-terminal alpha-amino acylated with C20 diacid-gGlu; Cys2-Cys7 disulfide; C-terminal amide, analogue of human amylin; also called compound 39) [N^α1-[(4S)-4-carboxy-4-(19-carboxynonadecanoylamino)butanoyl]-[Arg17,Pro21,Pro27,Arg34]-h-amylin] |  |  |  | 2.52 |
| KCNTATCATQRLANFLRHSSPNFGAIPSSTNVGHNTY (N-terminal alpha-amino acylated with C20 diacid-gGlu; Cys2-Cys7 disulfide; C-terminal amide, analogue of human amylin; also called compound 40) [N^α1-[(4S)-4-carboxy-4-(19-carboxynonadecanoylamino)butanoyl]-[Arg17,Pro21,Pro27,His34]-h-amylin] |  |  |  | 2.68 |
| KCNTATCATQRLAEFLRHSSPNFGAIPSSTNVGSNTY (N-terminal alpha-amino acylated with C20 diacid-gGlu-2xOEG; Cys2-Cys7 disulfide; C-terminal amide, analogue of human amylin; also called compound 19) |  |  |  | 5.32 |
